Measurements from PMC11021511 (Nature Communications, 2024).

Key:
Assay in all cases: affinity purification with mass spectrometry; ESK1 antibody cross-linked to Protein A/G beads as bait; lysate of primary human liver tissue (0.5% IGEPAL 630, 50 mM Tris pH 8.0, 150 mM NaCl), at least 5 h at 4 °C; washes with 150 mM NaCl, 450 mM NaCl and no salt; peptides eluted with 10% acetic acid, 5 kDa filter, LC-MS2; enrichment against the MAGE-A4 antibody as control; triplicates
Details in all cases: one partner purified
[1] = target: T1, HLA-A*02:01 in complex with peptide ARHGEF26_(863-871) (…) (Homo sapiens, HLA-A*02:01)
T1 construct: HLA class I heavy chain, allele HLA-A*02:01, human; beta-2-microglobulin, human; The presenting allele is assigned by NetMHCpan 4.1 prediction (rank <= 2); source: peptide pulsed on T2 cells (JNFAT assay); copies: + +

[2] = target: T2, HLA-A*02:01 in complex with peptide CRYL1_(130-138) (…) (Homo sapiens, HLA-A*02:01)
T2 construct: HLA class I heavy chain, allele HLA-A*02:01, human; beta-2-microglobulin, human; The presenting allele is assigned by NetMHCpan 4.1 prediction (rank <= 2); source: peptide pulsed on T2 cells (JNFAT assay); copies: + +

[3] = target: T3, HLA-A*02:01 in complex with peptide MSMO1_(164-172) (…) (Homo sapiens, HLA-A*02:01)
T3 construct: HLA class I heavy chain, allele HLA-A*02:01, human; beta-2-microglobulin, human; The presenting allele is assigned by NetMHCpan 4.1 prediction (rank <= 2); source: peptide pulsed on T2 cells (JNFAT assay); copies: + +

[4] = target: T4, HLA-A*02:01 in complex with peptide CYP2C8_(59-67) (…) (Homo sapiens, HLA-A*02:01)
T4 construct: HLA class I heavy chain, allele HLA-A*02:01, human; beta-2-microglobulin, human; Cytochrome P450 2C8, human, residues 59-67; The presenting allele is assigned by NetMHCpan 4.1 prediction (rank <= 2); source: peptide pulsed on T2 cells (JNFAT assay); copies: + +

[5] = target: T5, HLA-A*02:01 in complex with peptide USP9Y_(1674-1682) (…) (Homo sapiens, HLA-A*02:01)
T5 construct: HLA class I heavy chain, allele HLA-A*02:01, human; beta-2-microglobulin, human; The presenting allele is assigned by NetMHCpan 4.1 prediction (rank <= 2); source: peptide pulsed on T2 cells (JNFAT assay); copies: + +

[6] = target: T6, HLA-A*02:01 in complex with peptide PLG_(92-100) (…) (Homo sapiens, HLA-A*02:01)
T6 construct: HLA class I heavy chain, allele HLA-A*02:01, human; beta-2-microglobulin, human; Plasminogen, human, residues 92-100; The presenting allele is assigned by NetMHCpan 4.1 prediction (rank <= 2); source: peptide pulsed on T2 cells (JNFAT assay); copies: + +

[7] = target: T7, HLA-A*02:01 in complex with peptide MAF_(116-124) (…) (Homo sapiens, HLA-A*02:01)
T7 construct: HLA class I heavy chain, allele HLA-A*02:01, human; beta-2-microglobulin, human; The presenting allele is assigned by NetMHCpan 4.1 prediction (rank <= 2); source: peptide pulsed on T2 cells (JNFAT assay); copies: + +

[8] = target: T8, HLA-A*02:01 in complex with peptide ALDOA_(216-224) (…) (Homo sapiens, HLA-A*02:01)
T8 construct: HLA class I heavy chain, allele HLA-A*02:01, human; beta-2-microglobulin, human; The presenting allele is assigned by NetMHCpan 4.1 prediction (rank <= 2); source: peptide pulsed on T2 cells (JNFAT assay); copies: + +

[9] = target: T9, HLA-A*02:01 in complex with peptide HNRNPA1_(15-23) (…) (Homo sapiens, HLA-A*02:01)
T9 construct: HLA class I heavy chain, allele HLA-A*02:01, human; beta-2-microglobulin, human; Heterogeneous nuclear ribonucleoprotein A1, human, residues 15-23; The presenting allele is assigned by NetMHCpan 4.1 prediction (rank <= 2; printed rank 1.625); source: peptide pulsed on T2 cells (JNFAT assay); copies: + +

[10] = target: T10, HLA-A*02:01 in complex with peptide ILF2_(127-135) (…) (Homo sapiens, HLA-A*02:01)
T10 construct: HLA class I heavy chain, allele HLA-A*02:01, human; beta-2-microglobulin, human; The presenting allele is assigned by NetMHCpan 4.1 prediction (rank <= 2); source: peptide pulsed on T2 cells (JNFAT assay); copies: + +

[11] = target: T11, HLA-A*02:01 in complex with peptide RBM4B_(59-67) (…) (Homo sapiens, HLA-A*02:01)
T11 construct: HLA class I heavy chain, allele HLA-A*02:01, human; beta-2-microglobulin, human; The presenting allele is assigned by NetMHCpan 4.1 prediction (rank <= 2); also called RMB4B_(59-67); source: peptide pulsed on T2 cells (JNFAT assay); copies: + +

[12] = target: T12, HLA-A*02:01 in complex with peptide RL5_(117-125) (…) (Homo sapiens, HLA-A*02:01)
T12 construct: HLA class I heavy chain, allele HLA-A*02:01, human; beta-2-microglobulin, human; The presenting allele is assigned by NetMHCpan 4.1 prediction (rank <= 2); source: peptide pulsed on T2 cells (JNFAT assay); copies: + +

[13] = target: T13, HLA-A*02:01 in complex with peptide SET_(150-158) (…) (Homo sapiens, HLA-A*02:01)
T13 construct: HLA class I heavy chain, allele HLA-A*02:01, human; beta-2-microglobulin, human; The presenting allele is assigned by NetMHCpan 4.1 prediction (rank <= 2); source: peptide pulsed on T2 cells (JNFAT assay); copies: + +

[14] = target: T14, HLA-A*02:01 in complex with peptide SF3B4_(78-86) (…) (Homo sapiens, HLA-A*02:01)
T14 construct: HLA class I heavy chain, allele HLA-A*02:01, human; beta-2-microglobulin, human; Splicing factor 3B subunit 4, human, residues 78-86; The presenting allele is assigned by NetMHCpan 4.1 prediction (rank <= 2); source: peptide pulsed on T2 cells (JNFAT assay); copies: + +

[15] = target: T15, HLA-A*02:01 in complex with peptide SHC1_(469-477) (…) (Homo sapiens, HLA-A*02:01)
T15 construct: HLA class I heavy chain, allele HLA-A*02:01, human; beta-2-microglobulin, human; The presenting allele is assigned by NetMHCpan 4.1 prediction (rank <= 2); source: peptide pulsed on T2 cells (JNFAT assay); copies: + +

Measured: binding result

B1: ESK1 antibody (antibody, V domains shown)
VH: QMQLVQSGAEVKEPGESLRISCKGSGYSFTNFWISWVRQMPGKGLEWMGRVDPGYSYSTYSPSFQGHVTISADKSTSTAYLQWNSLKASDTAMYYCARVQYSGYYDWFDPWGQGTLVTVSS
VL: not shown
notes: the constant region of the bait antibody is not described for ESK1
binds: [1] | [2] | [3] | [4] | [5] | [6] | [7] | [8] | [9] | [10] | [11] | [12] | [13] | [14] | [15]
